± gives the standard deviation of the averaged measurements.
Test system: ATP
Assay: switch fluorescence ratio, 500 uM ATP over buffer (Cy3 cluster intensity, sum of 5 cycles each) (fold (ratio)); higher = stronger signal-on switching upon ATP binding; sequences stand for … in TCGTCGGCAGCGTCAGATGTGTATAAGAGACAGTTTTTTTTTTTTTTTTTTTTTTTTT…TC
Conditions: aptamer strand: ATP DNA aptamer (quencher-CACCTGGGGGAGTATTGCGGAGGAAGG + anchor), 100 nM annealed; ATP concentration: 500 uM
How it was run: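 Values give the fluorescence ratio for each switch-domain sequence, averaged from per-cluster ratios of summed target-cycle to summed buffer-cycle Cy3 intensity. The Cy3-labelled switching-strand clusters sat on a modified Illumina MiSeq flow-cell, were annealed to 100 nM quencher-labelled ATP aptamer, and were imaged in selection buffer, then after 15 min with 500 uM ATP at 22 °C. Five cycles ran with NaOH stripping and re-annealing between them, and clusters outside 100-1000 RFU were excluded.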
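Note: ATP exposure 15 min at 22 °C before imaging.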

| Sequence | switch fluorescence ratio |
| --- | --- |
| GTGGTGGTGG | 0.996 ± 0.023 |
| GTGGTTACAG | 1.02 ± 0.011 |
| GTGGTTAGCA | 0.9712 ± 0.0065 |
| GTGGTTGGGT | 0.979 ± 0.023 |
| GTGGTTGTAT | 0.974 ± 0.015 |
| GTGGTTGTCG | 0.983 ± 0.015 |
| GTGGTTGTTT | 1.01 ± 0.049 |
| GTGTAAATAG | 1.01 ± 0.025 |
| GTGTAAATCT | 1.036 ± 0.0046 |
| GTGTAAGTA | 0.9702 ± 0.0042 |
| GTGTACAAAT | 0.9896 ± 0.0041 |
| GTGTACGTGG | 1.008 ± 0.0057 |
| GTGTAGAGGG | 1 ± 0.048 |
| GTGTATGGAT | 1.023 ± 0.0066 |
| GTGTATGTTT | 1.01 ± 0.028 |
| GTGTCATAGT | 0.9923 ± 0.0016 |
| GTGTCCCTC | 1.01 ± 0.04 |
| GTGTCCTTGG | 1.006 ± 0.0084 |
| GTGTCGCGGG | 0.962 ± 0.013 |
| GTGTCGTTTG | 1 ± 0.032 |
| GTGTCTGTTG | 0.981 ± 0.02 |
| GTGTGACAAC | 0.975 ± 0.013 |

| Sequence | switch fluorescence ratio |
| --- | --- |
| GTGTGCCGCA | 0.977 ± 0.031 |
| GTGTGCGGGG | 1.06 ± 0.079 |
| GTGTGGAGGA | 1.03 ± 0.037 |
| GTGTGGCACT | 0.9989 ± 0.0056 |
| GTGTGGCGGG | 0.996 ± 0.011 |
| GTGTGGCTGG | 0.9398 ± 0.0088 |
| GTGTGGGAGC | 1 ± 0.06 |
| GTGTGGGTTC | 0.982 ± 0.012 |
| GTGTGTGTAA | 1.01 ± 0.045 |
| GTGTGTTTGT | 0.955 ± 0.038 |
| GTGTTAAAAT | 1.01 ± 0.018 |
| GTGTTACTTT | 0.99 ± 0.017 |
| GTGTTAGAT | 0.964 ± 0.043 |
| GTGTTAGGGT | 0.984 ± 0.035 |
| GTGTTATGTG | 0.9504 ± 0.0021 |
| GTGTTCGCTT | 0.984 ± 0.0099 |
| GTGTTCGGGG | 0.998 ± 0.021 |
| GTGTTCTCGC | 0.999 ± 0.05 |
| GTGTTGGTAT | 1.01 ± 0.034 |
| GTGTTGTTGC | 0.981 ± 0.0012 |
| GTGTTGTTGT | 0.998 ± 0.016 |
| GTGTTTAAGT | 0.962 ± 0.014 |

| Sequence | switch fluorescence ratio |
| --- | --- |
| GTGTTTAATT | 1.03 ± 0.035 |
| GTGTTTAGGA | 1.02 ± 0.018 |
| GTGTTTAGGG | 0.999 ± 0.021 |
| GTGTTTGGCT | 0.972 ± 0.024 |
| GTGTTTGTCA | 0.981 ± 0.017 |
| GTTAAAAGGG | 1.01 ± 0.028 |
| GTTAAAGATA | 0.9918 ± 0.00016 |
| GTTAAATGGT | 1 ± 0.031 |
| GTTAACAGTT | 0.989 ± 0.027 |
| GTTAACCAGC | 1.05 ± 0.016 |
| GTTAACGGGT | 0.997 ± 0.02 |
| GTTAACTAAT | 1.57 ± 0.85 |
| GTTAAGGGGA | 0.999 ± 0.021 |
| GTTAATACCC | 1.04 ± 0.014 |
| GTTAATAGTG | 0.988 ± 0.021 |
| GTTAATCTTA | 0.9873 ± 0.0036 |
| GTTAATTAGC | 1.03 ± 0.041 |
| GTTACAGAGA | 1.003 ± 0.0011 |
| GTTACGTTAT | 1.13 ± 0.078 |
| GTTACTGGCC | 1.01 ± 0.0068 |
| GTTACTTAGC | 1.04 ± 0.082 |
| GTTAGAAGGG | 0.978 ± 0.023 |

| Sequence | switch fluorescence ratio |
| --- | --- |
| GTTAGAGGGA | 0.99589 ± 4.1e-05 |
| GTTAGCAAGG | 1.08 ± 0.018 |
| GTTAGCAGGG | 1.01 ± 0.044 |
| GTTAGCTAAT | 0.987 ± 0.034 |
| GTTAGGGGCA | 1 ± 0.072 |
| GTTAGGGTAT | 0.9975 ± 0.004 |
| GTTAGGTGGC | 0.931 ± 0.021 |
| GTTAGTACGG | 0.9819 ± 0.0036 |
| GTTAGTAGCT | 0.97 ± 0.013 |
| GTTAGTGCGA | 1.01 ± 0.037 |
| GTTAGTGGCT | 0.9906 ± 0.0034 |
| GTTAGTTAGG | 0.976 ± 0.025 |
| GTTATAATCC | 1.037 ± 0.0076 |
| GTTATACGGT | 0.997 ± 0.057 |
| GTTATAGAGG | 1.03 ± 0.042 |
| GTTATAGCGG | 0.976 ± 0.018 |
| GTTATAGCTA | 0.9859 ± 0.0061 |
| GTTATATCGC | 0.985 ± 0.03 |
| GTTATATGGT | 1.02 ± 0.021 |

Reference: the supplement of paper PMC10126150
